Data on 1 molecule can be found in PMC2174347 (The Journal of Cell Biology, 2000).

In this assay the target is wild-type ezrin 1-586 (UniProt P15311 1-586). The experiment in a line: solid phase assay.

B1: ezrin 1-333 K63N, K64N, K253N, K254N, K262N, and K263N (domain or fragment, UniProt P15311 1-333, looked up)
chain: MPKPINVRVTTMDAELEFAIQPNTTGKQLFDQVVKTIGLREVWYFGLHYVDNKGFPTWLKLDNNVSAQEVRKENPLQFKFRAKFYPEDVAEELIQDITQKLFFLQVKEGILSDEIYCPPETAVLLGSYAVQAKFGDYNKEVHKSGYLSSERLIPQRVMDQHKLTRDQWEDRIQVWHAEHRGMLKDNAMLEYLKIAQDLEMYGINYFEIKNKKGTDLWLGVDALGLNIYEKDDKLTPKIGFPWSEIRNISFNDNNFVIKPIDNNAPDFVFYAPRLRINKRILQLCMGNHELYMRRRKPDTIEVQQMKAQAREEKHQKQLERQQLETEKKRRETV
Turning to B1, the binding result is on record as “binds”.
